The values that follow come from paper PMC10866687 (2024).

First the molecules themselves.
B1: cortactin-GFP (wild type), in 293T cells [not stated] / FLAG-MAP1B-LC1 (wild type) [not stated (human or rat cDNA cloned)] (parent complex)
chain 1: not shown
chain 2: DRSPSPRHPDVSMVDPEALAIEQNLGKALKKDLKEKTKTKKPGTKTKSSSPVKKSDGKSKPLAASPKPAGLKESSDKVSRVASPKKKESVEKAAKPTTTPEVKAARGEEKDKETKNAANASASKSAKTATAGPGTTKTTKSSAVPPGLPVYLDLCYIPNHSNSKNVDVEFFKRVRSSYYVVSGNDPAAEEPSRAVLDALLEGKAQWGSNMQVTLIPTHDSEVMREWYQETHEKQQDLNIMVLASSSTVVMQDESFPACKIEL

Variants of B1 are the subject of the experiment. Nature of the experiment: coimmunoprecipitation (IP FLAG, immunoblot quantification); n = 4 experiments; parent: 100; read off a plot.
Regarding chain 2 K60A, chain 2 P61A, the percent of parent is ~120 % of WT.
As for chain 2 K41A, chain 2 P42A, the percent of parent is ~76 % of WT.
On to chain 2 P145A, chain 2 P146A, for which the percent of parent was ~36 % of WT.
To chain 2 P66A, chain 2 K67A, chain 2 P68A belongs ~93 % of WT; to chain 2 P6A, chain 2 R7A, ~78 % of WT; to chain 2 K95A, chain 2 P96A, ~110 % of WT.
